The target of this assay is T1, calpain-2 (Homo sapiens, UniProt P17655).
T1 sequence (P17655 1-700): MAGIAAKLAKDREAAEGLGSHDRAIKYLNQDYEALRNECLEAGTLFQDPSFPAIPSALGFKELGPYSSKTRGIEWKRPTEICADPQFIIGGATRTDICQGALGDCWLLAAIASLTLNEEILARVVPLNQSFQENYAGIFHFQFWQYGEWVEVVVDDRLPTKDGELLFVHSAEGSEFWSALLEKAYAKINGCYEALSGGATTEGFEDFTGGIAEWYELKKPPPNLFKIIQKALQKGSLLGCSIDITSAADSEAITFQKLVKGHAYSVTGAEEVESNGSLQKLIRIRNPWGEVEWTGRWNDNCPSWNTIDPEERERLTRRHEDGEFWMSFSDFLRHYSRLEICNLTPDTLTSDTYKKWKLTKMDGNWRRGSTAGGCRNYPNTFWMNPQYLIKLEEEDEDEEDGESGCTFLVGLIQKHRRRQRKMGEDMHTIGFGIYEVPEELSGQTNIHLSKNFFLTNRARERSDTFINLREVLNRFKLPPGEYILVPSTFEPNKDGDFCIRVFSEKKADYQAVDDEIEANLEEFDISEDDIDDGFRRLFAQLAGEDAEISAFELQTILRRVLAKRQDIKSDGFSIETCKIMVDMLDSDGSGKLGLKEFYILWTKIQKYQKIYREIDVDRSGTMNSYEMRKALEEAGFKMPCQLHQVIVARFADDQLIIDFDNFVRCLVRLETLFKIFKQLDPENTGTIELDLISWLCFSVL
T1 sequence (P04632 1-268 partner): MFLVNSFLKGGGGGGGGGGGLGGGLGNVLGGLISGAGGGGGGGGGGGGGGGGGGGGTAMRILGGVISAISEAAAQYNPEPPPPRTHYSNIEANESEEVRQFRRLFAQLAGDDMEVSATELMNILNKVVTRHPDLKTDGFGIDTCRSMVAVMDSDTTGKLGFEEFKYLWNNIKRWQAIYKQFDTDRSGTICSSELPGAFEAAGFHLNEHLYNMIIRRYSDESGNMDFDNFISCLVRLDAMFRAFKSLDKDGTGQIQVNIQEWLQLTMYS
Nature of the assay: in vitro calpain-2 inhibition, succinic-Leu-Tyr-AMC substrate. Particulars: selectivity calpain-2 over calpain-1. It is filed as biochemical. On the procedure: Formula 1, where chiral center 1 is the L-form and chiral center 2 is a racemic mixture of D- and L- in this example was introduced at various concentrations (from 1 nM to 10 μM) into an in vitro mix comprising succinic-Leu-Tyr-AMC and calpain-1 or calpain-2 (Sasaki et al, 1984), and the kinetics of the loss of fluorescence were determined for each of the calpains (Powers et al, 2000). […] Therefore, the assessment of selectivity described herein was different than the prior teaching.
Formula 1A, where chiral center 1 is the S-form and chiral center 2 is the S-form was separated from the S-R-form (Formula 1B) using methods that are well-known methods for separating diastereoisomers. Formula 1A, which is also referred to herein as compound 18A, in this example was introduced at various concentrations into an in vitro mix comprising succinic-Leu-Tyr-AMC and μ-calpain or m-calpain (Sasaki et al, 1984), and the kinetics of the loss of fluorescence were determined for each of the calpains.

B1: Stargazin gamma-2: protein involved in AMPA receptor trafficking, calpain-2 specific substrate; cytoplasmic C-terminus (protein, UniProt Q9Y698 1-323, looked up)
Voltage-dependent calcium …: MGLFDRGVQMLLTTVGAFAAFSLMTIAVGTDYWLYSRGVCKTKSVSENETSKKNEEVMTHSGLWRTCCLEGNFKGLCKQIDHFPEDADYEADTAEYFLRAVRASSIFPILSVILLFMGGLCIAASEFYKTRHNIILSAGIFFVSAGLSNIIGIIVYISANAGDPSKSDSKKNSYSYGWSFYFGALSFIIAEMVGVLAVHMFIDRHKQLRATARATDYLQASAITRIPSYRYRYQRRSRSSSRSTEPSHSRDASPVGIKGFNTLPSTEISMYTLSRDPLKAATTPTATYNSDRDNSFLQVHNCIQKENKDSLHSNTANRRTTPV
With B1, the “inhibits calpain-2 more than calpain-1 (Ki lower for calpain-2)” value was “approximately 100 fold”.
